Columns and labels:
Human PD-L1-His = target: T1, Human PD-L1-His (human, UniProt Q9NZQ7 19-238); test: bridging ELISA, hPDL1-His and hVEGF121b-mFc as the two antigens; control diluted from 10 ug/ml
T1 construct: also called hPD-L1

human VEGF-A-His = target: T2, human VEGF-A-His (human, UniProt P15692 207-395); test: SPR (Biacore T200), human VEGF-A-His coupled to the chip, fusion protein flowed over
T2 construct: also called hVEGF-A
T2 sequence: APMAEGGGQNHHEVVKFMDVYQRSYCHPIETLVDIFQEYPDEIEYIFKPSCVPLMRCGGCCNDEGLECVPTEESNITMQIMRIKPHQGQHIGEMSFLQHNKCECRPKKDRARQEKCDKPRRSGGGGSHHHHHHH
Protocol: The affinities of FabT and FTF were detected by Biacore T200 instrument. The specific protocols were as follows. Human PD-L1-His (constructed by GeneScience, SEQ ID NO: 11) and human VEGF-A-His (constructed by GeneScience, SEQ ID NO: 13) were coupled to CMS biosensor chip (GE), and then the antibodies of different concentrations were flowed through the chip at a flow rate of 30 μL/min. The binding between the candidate antibody and antigen was performed with a binding time of 120 s and a dissociation time of 300 s. The kinetic fitting was performed using BIAevalution software (GE), and the results of affinity constants were obtained as shown in Table 6 and Table 7.

VEGFA protein = VEGFA protein (UniProt P15692-4 27-191, limits assumed); test: cell-based or functional assay
[1] = target: PDL1 on the surface of CHO-PDL1-CD3L cells (UniProt Q9NZQ7 19-290, limits assumed); test: cell-based or functional assay
Chain of PDL1 on the surface of CHO-PDL1-CD3L cells (Q9NZQ7 19-290 limits assumed): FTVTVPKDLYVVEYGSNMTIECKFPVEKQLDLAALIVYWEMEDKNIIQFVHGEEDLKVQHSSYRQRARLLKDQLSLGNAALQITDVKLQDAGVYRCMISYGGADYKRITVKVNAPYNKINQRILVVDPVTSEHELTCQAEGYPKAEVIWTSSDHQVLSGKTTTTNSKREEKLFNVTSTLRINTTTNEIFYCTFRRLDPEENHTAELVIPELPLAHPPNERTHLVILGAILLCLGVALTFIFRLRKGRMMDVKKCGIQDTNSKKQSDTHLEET

T1 sequence (Q9NZQ7 19-238 limits assumed): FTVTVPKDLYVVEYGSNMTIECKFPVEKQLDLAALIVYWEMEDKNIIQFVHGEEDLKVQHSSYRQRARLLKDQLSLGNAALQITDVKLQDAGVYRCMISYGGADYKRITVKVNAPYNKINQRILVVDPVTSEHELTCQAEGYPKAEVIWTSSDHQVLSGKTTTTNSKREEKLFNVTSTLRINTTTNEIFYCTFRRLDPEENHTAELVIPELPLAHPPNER

B1: Eylea positive fusion protein (Fc fusion, not shown: a dimerising Fc or GST)
chain: SDTGRPFVEMYSEIPEIIHMTEGRELVIPCRVTSPNITVTLKKFPLDTLIPDGKRIIWDSRKGFIISNATYKEIGLLTCEATVNGHLYKTNYLTHRQTNTIIDVVLSPSHGIELSVGEKLVLNCTARTELNVGIDFNWEYPSSKHQHKKLVNRDLKTQSGSEMKKFLSTLTIDGVTRSDQGLYTCAASSGLMTKKNSTFVRVHEK
notes: also called control molecule Eylea
Q: Does B1 bind (Human PD-L1-His)?
A: no binding (tested: 10 ug/ml)

Q: And the Kd (human VEGF-A-His)?
A: 1.51 nM

Q: And the koff (human VEGF-A-His)?
A: 0.000932 s⁻¹

Q: And the kon (human VEGF-A-His)?
A: 617000 M⁻¹ s⁻¹

Q: What about the “IC50, luciferase reporter in NFAT-RE-Luc2P-KDR-HEK293 cells stimulated with 50 ng/ml VEGFA” value (VEGFA protein) of the same binder?
A: 0.75 nM

B2: anti-human PD-L1 humanized monoclonal antibody 047 Ab-6 (antibody, V domains shown)
VH: EVQLVESGGGLVQPGGSLRLSCAASYFPFSDSWIHWVRQAPGKGLEWVAWISPYGGSSYYADSVQDRFTISADTSKNTAYLQMNSLRAEDTAVYYCAKRHWPGGFDHWGQGTLVTVSS
VL: DIQMTQSPSSLSASVGDRVTITCSASQDVTTAVAWYQQKPGKAPKLLIYSASFPYRGVPSRFSGSGSGTDFTLTISSLQPEDFATYYCQQYMYHPSTFGQGTKVEIK
Q: For B2, which “EC50, luciferase reporter in Jurkat-PD1-NFAT cells co-cultured with CHO-PDL1-CD3L cells” value [1] is on record?
A: 3.55 nM

Reference: patent US20220073620A1 (CHANGCHUN GENESCIENCE PHARMACEUTICAL, published 2022)
